Assay results published in the supplement of paper PMC7877785.
± gives the uncertainty stated by the source.

Assay: self-splicing fitness, log relative to wild type (ln ratio); higher = more splicing; Tetrahymena group I intron in knt gene, E. coli kanamycin selection, DiMSum; sequences stand for … in CUCUCU…GGAGGGAAAAGUUAUCAGGCAUGCACCUGGUAGCUAGUCUUUAAACCAAUAGAUUGCAUCGGUUUAAAAGGCAAGACCGUCAAAUUGCGGGAAAGGGGUCAACAGCCGUUCAGUACCAAGUCUCAGGGGAAACUUUGAGAUGGCCUUGCAAAGGGUAUGGUAAUAAGCUGACGGACAUGGUCCUAACCACGCAGCCAAGUCCUAAGUCAACAGAUCUUCUGUUGAUAUGGAUGCAGUUCACAGACUAAAUGUCGGUCGGGGAAGAUGUAUUCUUCUCAUAAGAUAUAGUCGGACCUCUCCUUAAUGGGAGCUAGCGGAUGAAGUGAUGCAACACUGGAGCCGCUGGGAACUAAUUUGUAUGCGAAAGUAUAUUGAUUAGUUUUGGAGUACUCGUGGUCG
Summary of the method: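 DiMSum derived fitness as the error-weighted combination of fold changes across replicates, kanamycin versus no kanamycin, normalised to wild type. E. coli BL21(DE3) held the library, which randomised all eight P1ex-region intron nucleotides within the knt kanamycin-resistance gene on pET-22b(+). Six replicate transformations grew overnight at 37°C or 30°C on LB agar with or without 25 μg/mL kanamycin, also containing 100 μg/mL carbenicillin, 50 μM IPTG and 0.2% rhamnose, and pooled colonies were amplicon-sequenced on an Illumina HiSeq 2500.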

| Sequence | self-splicing fitness (ln) (30 °C) | self-splicing fitness (ln) (37 °C) |
| --- | --- | --- |
| GACGAGCAAUAUUACGAGUC | -3.37 ± 0.2 | -2.85 ± 0.31 |
| ACGGAGCAAUAUUACGAUAA | -3.89 ± 0.23 | -2.72 ± 0.21 |
| GACCAGCAAUAUUACGAGUC | -3.82 ± 0.23 | -2.06 ± 0.18 |
| AGGUAGCAAUAUUACGAAUA | -2.28 ± 0.026 | -1.51 ± 0.037 |
| GAGCAGCAAUAUUACGUGCA | -1.15 ± 0.071 | -0.471 ± 0.081 |
| CUGCAGCAAUAUUACGGUCA | -3.07 ± 0.23 | -2.18 ± 0.16 |
| GAAGAGCAAUAUUACGCUGA |  | -2.3 ± 0.28 |
| ACAUAGCAAUAUUACGAGCA | -2.89 ± 0.12 | -1.1 ± 0.11 |
| AUUUAGCAAUAUUACGGCGC | -0.408 ± 0.16 | -0.248 ± 0.22 |
| CGUAAGCAAUAUUACGAUCA | -1.17 ± 0.11 | -0.755 ± 0.12 |
| UUACAGCAAUAUUACGUAUC | -3.33 ± 0.19 | -3.28 ± 0.24 |
| AUUCAGCAAUAUUACGGAGC | -2.82 ± 0.23 | -1.71 ± 0.19 |
| GACCAGCAAUAUUACGGUCU | -3.61 ± 0.17 | -3.16 ± 0.21 |
| CAGCAGCAAUAUUACGCAAA | -3.14 ± 0.34 | -1.77 ± 0.23 |
| GGUUAGCAAUAUUACGAAUC | -1.76 ± 0.16 | -1.06 ± 0.24 |
| AUUGAGCAAUAUUACGAGGG | -2.87 ± 0.14 | -2.85 ± 0.29 |
| UCCUAGCAAUAUUACGAUGG | -3.64 ± 0.23 | -2.15 ± 0.21 |
| CAGCAGCAAUAUUACGCUGG | -2.69 ± 0.15 | -2.43 ± 0.17 |
| UCCGAGCAAUAUUACGUUAU | -3.95 ± 0.21 | -1.93 ± 0.19 |
| AUGUAGCAAUAUUACGAUCC | -0.944 ± 0.14 | -0.204 ± 0.15 |
| AUACAGCAAUAUUACGUGGG | -3.45 ± 0.15 | -1.53 ± 0.12 |
| UAUCAGCAAUAUUACGGUGA | -0.121 ± 0.054 | -0.19 ± 0.065 |
| AGGGAGCAAUAUUACGAGUC | -2.9 ± 0.3 |  |
| ACGAAGCAAUAUUACGAUGG | -2.34 ± 0.13 | -1.17 ± 0.12 |
| CUUUAGCAAUAUUACGCGCU | -3.14 ± 0.25 | -0.469 ± 0.17 |
| AACCAGCAAUAUUACGUAUU | -1.79 ± 0.072 | -0.754 ± 0.08 |

| Sequence | self-splicing fitness (ln) (30 °C) | self-splicing fitness (ln) (37 °C) |
| --- | --- | --- |
| UGCAAGCAAUAUUACGCCGA | -1.38 ± 0.15 | -0.485 ± 0.14 |
| CCAAAGCAAUAUUACGAGGC | -4.23 ± 0.27 | -2.46 ± 0.22 |
| CUGCAGCAAUAUUACGCGAG | -3.67 ± 0.17 | -1.98 ± 0.15 |
| CGGAAGCAAUAUUACGCUAU | -3.66 ± 0.25 | -2.13 ± 0.2 |
| AUAAAGCAAUAUUACGCACU | 0.366 ± 0.11 | 0.662 ± 0.11 |
| CGUCAGCAAUAUUACGCAAA | -2.96 ± 0.17 | -1.12 ± 0.16 |
| UGCUAGCAAUAUUACGCUGG | -3.07 ± 0.23 | -2.25 ± 0.32 |
| GGGUAGCAAUAUUACGAUGU | -0.794 ± 0.1 | 0.357 ± 0.15 |
| ACGUAGCAAUAUUACGUCGA | -3.67 ± 0.3 | -2.72 ± 0.24 |
| AAGUAGCAAUAUUACGGAUG | -3.53 ± 0.39 | -1.76 ± 0.17 |
| AAUGAGCAAUAUUACGAGAG |  | -2.7 ± 0.41 |
| GGUGAGCAAUAUUACGAAAC | -2.41 ± 0.24 | -1.02 ± 0.27 |
| UCCUAGCAAUAUUACGAUUU | -2.16 ± 0.16 | -1.36 ± 0.21 |
| CAGAAGCAAUAUUACGGCUC | -2.64 ± 0.28 | -0.31 ± 0.21 |
| UAAGAGCAAUAUUACGCCAC | -2.07 ± 0.22 | -1.59 ± 0.29 |
| UGAAAGCAAUAUUACGCUGA | -2.09 ± 0.15 | -3.15 ± 0.23 |
| GCUUAGCAAUAUUACGUGGA | -2.06 ± 0.13 | -0.531 ± 0.11 |
| CCUGAGCAAUAUUACGCCUU | -2.73 ± 0.28 | -2.01 ± 0.2 |
| CUCAAGCAAUAUUACGCGAG | -2.5 ± 0.2 | -3.14 ± 0.3 |
| GCAUAGCAAUAUUACGGGUU | -1.79 ± 0.091 | -0.302 ± 0.088 |
| ACCAAGCAAUAUUACGUGAA | -2.5 ± 0.08 | -1.54 ± 0.091 |
| UUUGAGCAAUAUUACGUUAU | -3.92 ± 0.21 | -1.9 ± 0.16 |
| CAAUAGCAAUAUUACGGGAG | -2.53 ± 0.085 | -2 ± 0.09 |
| CGAUAGCAAUAUUACGAUGA | -1.8 ± 0.17 | -0.503 ± 0.2 |
| CUGCAGCAAUAUUACGACUA | -1.58 ± 0.13 | -1.09 ± 0.12 |
| CAAUAGCAAUAUUACGAAUA | -2.97 ± 0.39 | -3.26 ± 0.32 |

| Sequence | self-splicing fitness (ln) (30 °C) | self-splicing fitness (ln) (37 °C) |
| --- | --- | --- |
| ACGCAGCAAUAUUACGGUAC | -1.03 ± 0.18 | -2.48 ± 0.45 |
| AUCGAGCAAUAUUACGCUAU | -3.38 ± 0.29 | -3.08 ± 0.24 |
| AACCAGCAAUAUUACGAUCU | -0.425 ± 0.052 | 0.391 ± 0.074 |
| ACGUAGCAAUAUUACGGUGA | -2.3 ± 0.2 | -0.727 ± 0.15 |
| UAAAAGCAAUAUUACGCUAG | -1.09 ± 0.07 | -0.327 ± 0.091 |
| UAGAAGCAAUAUUACGUCAG | -0.574 ± 0.078 | -0.0756 ± 0.092 |
| UUGCAGCAAUAUUACGACUU | -0.403 ± 0.1 | -0.588 ± 0.08 |
| CCUGAGCAAUAUUACGGCUC | -3.81 ± 0.37 | -2.97 ± 0.41 |
| UUCAAGCAAUAUUACGACAG | -1.5 ± 0.11 | -1.1 ± 0.095 |
| UCGAAGCAAUAUUACGCCUA |  | -1.71 ± 0.42 |
| GAACAGCAAUAUUACGGAUC | -0.794 ± 0.06 | -0.441 ± 0.08 |
| ACGCAGCAAUAUUACGUACC | -1.46 ± 0.24 | -0.295 ± 0.26 |
| UUACAGCAAUAUUACGCUAC | -3.71 ± 0.22 | -1.96 ± 0.24 |
| UUUCAGCAAUAUUACGGGUG | -0.316 ± 0.074 | -0.441 ± 0.087 |
| GCAAAGCAAUAUUACGCAAC | -3.02 ± 0.15 | -1.23 ± 0.12 |
| CCGGAGCAAUAUUACGGGGG | -3.5 ± 0.2 | -1.83 ± 0.17 |
| CGGAAGCAAUAUUACGGCUC | -4.04 ± 0.25 | -2.51 ± 0.24 |
| UCCCAGCAAUAUUACGGAAU | -3.64 ± 0.18 | -1.53 ± 0.12 |
| AGUCAGCAAUAUUACGCUCU | -1.01 ± 0.2 | -0.342 ± 0.21 |
| CUGUAGCAAUAUUACGACGA | -1.4 ± 0.19 | -0.118 ± 0.15 |
| UGAAAGCAAUAUUACGUAAA | -1.75 ± 0.082 | -0.9 ± 0.098 |
| CCGCAGCAAUAUUACGGGCU | -3.56 ± 0.18 | -3.05 ± 0.22 |
| AUACAGCAAUAUUACGAGCA | -2.04 ± 0.24 | -1.91 ± 0.23 |
| UGCGAGCAAUAUUACGAUUU | -3.11 ± 0.37 | -0.802 ± 0.16 |
